The record followed here is the supplement of paper PMC9112550, “Optimization of the antimicrobial peptide Bac7 by deep mutational scanning” (BMC Biology, 2022).

The test system of this data set is Escherichia coli TOP10. The data set can be described thus: shrunken log2 fold change of peptide-encoding DNA abundance (4.5 h post-induction vs induction); higher = less antimicrobial activity (less host growth inhibition). Conditions: time post-induction: 4.5 h; library: site-saturation at positions 5, 18, 19, 20.
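Also: peptides expressed intracellularly from a pBAD plasmid library in pooled LB shake-flask culture, induced with 0.3% L-arabinose, DNA abundance read by NGS, three biological replicates, DESeq2 with apeglm shrinkage.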

For RRIRIRPPRLPRPRPRPHRPPRP, the “shrunken log2 fold change” value was -0.166. As for RRIRHRPPRLPRPRPRPNAKPRP, the “shrunken log2 fold change” value was -0.117.

With RRIRRRPPRLPRPRPRPIQFPRP, the “shrunken log2 fold change” value worked out at 0.153. For RRIRQRPPRLPRPRPRPTAVPRP, the “shrunken log2 fold change” value stood at 0.165.

For RRIRGRPPRLPRPRPRPACSPRP, the “shrunken log2 fold change” value was determined as 0.773. The value for RRIRARPPRLPRPRPRPRHQPRP was 0.178.

As to RRIRQRPPRLPRPRPRPYCAPRP, the “shrunken log2 fold change” value is -0.624. With RRIRVRPPRLPRPRPRPCMMPRP the figure was -0.33; with RRIRRRPPRLPRPRPRPSKPPRP, 0.241; with RRIRERPPRLPRPRPRPRICPRP, -0.111. For the sequence RRIRYRPPRLPRPRPRPLVYPRP, the “shrunken log2 fold change” value was -1.16. The value for RRIRKRPPRLPRPRPRPPSSPRP was 0.263.

For the sequence RRIRERPPRLPRPRPRPWPHPRP, the “shrunken log2 fold change” value is -0.0947. As to RRIRCRPPRLPRPRPRPSYWPRP, the “shrunken log2 fold change” value is -0.71.

On to RRIRVRPPRLPRPRPRPGTHPRP, for which the “shrunken log2 fold change” value is -0.056.

RRIRRRPPRLPRPRPRPLAVPRP: the “shrunken log2 fold change” value was 0.176. With RRIRNRPPRLPRPRPRPPSEPRP the figure was -0.147. The value for RRIRQRPPRLPRPRPRPGKGPRP was 0.00842; that for RRIRTRPPRLPRPRPRPNRLPRP was 0.0657. With RRIRVRPPRLPRPRPRPCVWPRP the figure was -0.0237; with RRIRIRPPRLPRPRPRPNYYPRP, -1.07.

For the sequence RRIRPRPPRLPRPRPRPYQWPRP, the “shrunken log2 fold change” value is -0.124.

Regarding RRIRWRPPRLPRPRPRPSLAPRP, the “shrunken log2 fold change” value amounted to 0.428. For the sequence RRIRGRPPRLPRPRPRPNWIPRP, the “shrunken log2 fold change” value was -0.034. Turning to RRIRHRPPRLPRPRPRPVRVPRP, the “shrunken log2 fold change” value amounted to 0.0942.

As to RRIRERPPRLPRPRPRPCKMPRP, the “shrunken log2 fold change” value was -0.427. With RRIRHRPPRLPRPRPRPTENPRP the figure was -0.418; with RRIRLRPPRLPRPRPRPEGRPRP, 1.11. The value for RRIRRRPPRLPRPRPRPHKCPRP was -0.346; that for RRIRNRPPRLPRPRPRPVNPPRP was -0.216.

For RRIRRRPPRLPRPRPRPGDMPRP, the “shrunken log2 fold change” value was found to be 0.0846. The value for RRIRMRPPRLPRPRPRPEQQPRP was -0.0233. RRIRIRPPRLPRPRPRPSEPPRP: the “shrunken log2 fold change” value is -0.192. The value for RRIRQRPPRLPRPRPRPWCIPRP was 0.0342. The value for RRIRMRPPRLPRPRPRPWYPPRP was -0.786; that for RRIRQRPPRLPRPRPRPVIFPRP was -0.0797; that for RRIRWRPPRLPRPRPRPLEPPRP was 0.676. The value for RRIRMRPPRLPRPRPRPLHRPRP was 0.304.

Regarding RRIRIRPPRLPRPRPRPIDTPRP, the “shrunken log2 fold change” value is -0.00177. With RRIRPRPPRLPRPRPRPQVYPRP, the “shrunken log2 fold change” value is 0.962.

In the case of RRIRIRPPRLPRPRPRPLRWPRP, the “shrunken log2 fold change” value is 1.02. The value for RRIRFRPPRLPRPRPRPWHYPRP was -0.146; that for RRIRQRPPRLPRPRPRPERHPRP was 0.181. In the case of RRIRMRPPRLPRPRPRPVTQPRP, the “shrunken log2 fold change” value is 0.317. With RRIRKRPPRLPRPRPRPRKMPRP the figure was 0.588; with RRIRLRPPRLPRPRPRPCRAPRP, 0.146; with RRIRFRPPRLPRPRPRPEQMPRP, 0.19. Regarding RRIRMRPPRLPRPRPRPVSPPRP, the “shrunken log2 fold change” value is 0.418.

Consider RRIRERPPRLPRPRPRPETIPRP, for which the “shrunken log2 fold change” value was -0.0222. With RRIRWRPPRLPRPRPRPKLPPRP, the “shrunken log2 fold change” value was 0.247.

Take RRIRFRPPRLPRPRPRPTQSPRP: the “shrunken log2 fold change” value turned out to be 0.691. Regarding RRIRHRPPRLPRPRPRPDEKPRP, the “shrunken log2 fold change” value is -0.00141. The value for RRIRLRPPRLPRPRPRPTVKPRP was -0.0583; that for RRIRMRPPRLPRPRPRPKVKPRP was 0.614. The value for RRIRFRPPRLPRPRPRPNDHPRP was -0.512; that for RRIRGRPPRLPRPRPRPLGQPRP was 0.756. For the sequence RRIRCRPPRLPRPRPRPTRQPRP, the “shrunken log2 fold change” value is 0.503.

Consider RRIRHRPPRLPRPRPRPWACPRP, for which the “shrunken log2 fold change” value is -0.051. Consider RRIRIRPPRLPRPRPRPCFPPRP, for which the “shrunken log2 fold change” value was -0.569.

For the sequence RRIRSRPPRLPRPRPRPWVFPRP, the “shrunken log2 fold change” value stood at 0.0645. The value for RRIRHRPPRLPRPRPRPSEKPRP was -0.144.

On to RRIRWRPPRLPRPRPRPEDFPRP, for which the “shrunken log2 fold change” value amounted to 0.0629. The value for RRIRGRPPRLPRPRPRPNPHPRP was 0.216; that for RRIRHRPPRLPRPRPRPPIVPRP was -0.252. The value for RRIRSRPPRLPRPRPRPWESPRP was 0.0145. Take RRIRHRPPRLPRPRPRPHYYPRP: the “shrunken log2 fold change” value was -0.216. The value for RRIRVRPPRLPRPRPRPPVTPRP was -0.0902; that for RRIRIRPPRLPRPRPRPIMPPRP was -0.825; that for RRIRGRPPRLPRPRPRPIDIPRP was -0.0347. Consider RRIRHRPPRLPRPRPRPKIKPRP, for which the “shrunken log2 fold change” value was -0.601.

In the case of RRIRVRPPRLPRPRPRPMTEPRP, the “shrunken log2 fold change” value was found to be 0.0198.

On to RRIRLRPPRLPRPRPRPLHAPRP, for which the “shrunken log2 fold change” value stood at 0.261.

With RRIRLRPPRLPRPRPRPGNIPRP, the “shrunken log2 fold change” value is -0.0276. With RRIRARPPRLPRPRPRPFYLPRP the figure was -0.515; with RRIRVRPPRLPRPRPRPKMHPRP, -0.198; with RRIRIRPPRLPRPRPRPCTSPRP, -0.438. With RRIRVRPPRLPRPRPRPKTEPRP the figure was 0.00185. As to RRIRIRPPRLPRPRPRPESTPRP, the “shrunken log2 fold change” value was -0.325. The value for RRIRERPPRLPRPRPRPRVKPRP was -0.207; that for RRIRNRPPRLPRPRPRPRAVPRP was 1.21.

Take RRIRNRPPRLPRPRPRPMSKPRP: the “shrunken log2 fold change” value was -0.197. For RRIRNRPPRLPRPRPRPTAHPRP, the “shrunken log2 fold change” value came to 0.0105. As for RRIRMRPPRLPRPRPRPQPSPRP, the “shrunken log2 fold change” value was found to be 1.11. The value for RRIRPRPPRLPRPRPRPVCFPRP was -0.027; that for RRIRIRPPRLPRPRPRPNTAPRP was -0.0523; that for RRIRARPPRLPRPRPRPMFDPRP was -0.101. The value for RRIRQRPPRLPRPRPRPEDAPRP was -0.132. The value for RRIRFRPPRLPRPRPRPNAQPRP was 0.0328. For RRIRSRPPRLPRPRPRPKDLPRP, the “shrunken log2 fold change” value worked out at 0.184.

As for RRIRPRPPRLPRPRPRPHLLPRP, the “shrunken log2 fold change” value was -0.0988. The value for RRIRWRPPRLPRPRPRPSRPPRP was 0.402.
